Experiments:
[1] = biological target: T1, RNA polymerase β subunit (in purified RNAP) (E. coli, UniProt P0A8V2 1-1342); assay: cryo-EM structure; purified Eσ^70 incubated with ssrA promoter DNA (threefold excess), then CedA (fivefold molar excess over RNAP); complex repurified on Superose 6 Increase in 30 mM HEPES pH 8.0, 100 mM KCl, 5 mM MgCl2, 0.5 mM TCEP; 2.76 Å; conditions: both partners purified
T1 construct: RNA polymerase β subunit (RpoB), WT E. coli; Stood in the assay as a subunit of the purified RNAPσ70 holoenzyme; also called β-lobe/βi4
T1 sequence (P0A8V2 whole entry): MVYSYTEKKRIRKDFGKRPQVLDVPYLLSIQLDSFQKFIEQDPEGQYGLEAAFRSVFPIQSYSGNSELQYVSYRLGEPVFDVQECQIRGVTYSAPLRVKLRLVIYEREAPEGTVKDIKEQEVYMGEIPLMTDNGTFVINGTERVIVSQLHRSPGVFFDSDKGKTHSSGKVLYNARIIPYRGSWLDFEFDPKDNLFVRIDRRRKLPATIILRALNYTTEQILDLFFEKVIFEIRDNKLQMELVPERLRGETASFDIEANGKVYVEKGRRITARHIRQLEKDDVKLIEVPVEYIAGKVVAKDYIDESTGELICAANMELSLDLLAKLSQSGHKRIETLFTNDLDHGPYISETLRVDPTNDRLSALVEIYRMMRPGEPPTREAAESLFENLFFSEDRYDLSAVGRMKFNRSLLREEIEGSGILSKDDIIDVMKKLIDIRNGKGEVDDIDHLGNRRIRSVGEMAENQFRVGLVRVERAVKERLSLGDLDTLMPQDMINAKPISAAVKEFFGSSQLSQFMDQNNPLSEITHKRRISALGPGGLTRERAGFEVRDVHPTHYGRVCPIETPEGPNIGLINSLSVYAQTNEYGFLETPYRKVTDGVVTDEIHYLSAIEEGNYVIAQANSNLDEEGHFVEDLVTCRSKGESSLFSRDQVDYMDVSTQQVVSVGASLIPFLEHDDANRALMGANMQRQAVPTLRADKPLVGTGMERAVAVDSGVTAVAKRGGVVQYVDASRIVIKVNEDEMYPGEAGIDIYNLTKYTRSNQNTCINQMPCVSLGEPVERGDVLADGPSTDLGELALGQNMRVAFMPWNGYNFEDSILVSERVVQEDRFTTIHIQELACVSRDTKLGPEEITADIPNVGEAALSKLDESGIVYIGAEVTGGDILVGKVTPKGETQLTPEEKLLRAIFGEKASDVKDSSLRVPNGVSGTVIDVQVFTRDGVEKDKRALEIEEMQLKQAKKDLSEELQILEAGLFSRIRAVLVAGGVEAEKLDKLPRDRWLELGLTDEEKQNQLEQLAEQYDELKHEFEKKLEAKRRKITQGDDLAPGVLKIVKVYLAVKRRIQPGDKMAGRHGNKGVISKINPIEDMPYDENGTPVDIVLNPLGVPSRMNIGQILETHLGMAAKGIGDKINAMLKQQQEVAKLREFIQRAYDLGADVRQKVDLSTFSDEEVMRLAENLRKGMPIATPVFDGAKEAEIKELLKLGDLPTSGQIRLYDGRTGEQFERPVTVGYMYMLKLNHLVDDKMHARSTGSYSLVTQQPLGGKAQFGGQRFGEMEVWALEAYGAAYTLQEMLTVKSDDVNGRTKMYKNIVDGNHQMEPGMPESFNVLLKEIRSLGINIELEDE

σ^70 (purified) = biological target: T2, σ^70 (purified) (E. coli, UniProt P00579 1-613); assay: as above; conditions: both partners purified
T2 construct: RNA polymerase sigma factor σ70 (RpoD), WT E. coli; also called RpoD
T2 sequence (P00579 whole entry): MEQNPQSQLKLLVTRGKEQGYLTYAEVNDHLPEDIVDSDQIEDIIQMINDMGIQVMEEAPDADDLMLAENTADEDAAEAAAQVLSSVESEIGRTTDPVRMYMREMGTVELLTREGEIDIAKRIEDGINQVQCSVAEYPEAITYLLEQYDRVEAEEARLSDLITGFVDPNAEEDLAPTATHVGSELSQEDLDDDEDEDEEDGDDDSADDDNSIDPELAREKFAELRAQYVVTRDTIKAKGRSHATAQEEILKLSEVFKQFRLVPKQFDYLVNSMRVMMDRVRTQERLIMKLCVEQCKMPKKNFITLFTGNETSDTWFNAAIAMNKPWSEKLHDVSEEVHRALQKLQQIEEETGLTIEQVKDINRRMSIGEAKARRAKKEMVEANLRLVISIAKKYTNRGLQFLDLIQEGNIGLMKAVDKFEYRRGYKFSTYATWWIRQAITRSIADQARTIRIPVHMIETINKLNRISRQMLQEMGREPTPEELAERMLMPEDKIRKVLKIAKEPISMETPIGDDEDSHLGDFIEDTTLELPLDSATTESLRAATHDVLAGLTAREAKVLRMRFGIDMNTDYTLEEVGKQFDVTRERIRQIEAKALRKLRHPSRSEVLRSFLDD

B1: CedA (purified recombinant) (natural protein, E. coli, UniProt P0AE60 1-80, looked up)
chain: MKKPLRQQNRQIISYVPRTEPAPPEHAIKMDSFRDVWMLRGKYVAFVLMGESFLRSPAFTVPESAQRWANQIRQEGEVTE
notes: CedA, E. coli; the open reading frame of cedA amplified from the MG1655 chromosome; also called WT CedA; source: E. coli BL21(DE3), pSumoH10-cedA, purified (HisTrap, Ulp1 tag removal, HiTrap SP, Superdex 75); not shown: 10× His, N-terminal, cleaved; SUMO, N-terminal, cleaved
B1: binds [1]; binds (σ^70 (purified)).

From publication PMC10803263, “General transcription factor from Escherichia coli with a distinct mechanism of action” (Nature Structural & Molecular Biology, 2023)
